Laboratory results taken from US8470576B2, “Group of novel enantioselective microbial nitrile hydratases with broad substrate specificity” (B.R.A.I.N. AG, priority 2006, dated 2013).

B1: NHase Seq ID No. 6 and 8: nitrile hydratase of Raoultella terrigena strain 37.1, α-subunit SEQ ID NO 6, β-subunit SEQ ID NO 8 (protein)
alpha: MSHKHDHDHTEPPIDIELRVRALESLLQEKGLIDPAALDELIDTYEHKVGPRNGAQVVARAWSDPEYKRRLMENATAAISELGFSGIQGEDMLVVENTPDVHNVTVCTLCSCYPWPVLGLPPVWYKSAPYRSRIVIDPRGVLAEFGLHIPESKEIRVWDSSAELRYLVLPERPAGTDGWSEAQLSELISRDSMIGTGVVTAP
beta: MNGIHDLGGMHGFGPIPTEENEPYFHHEWERRVFPMFASLFVGGHFNVDEFRHSIECMPPADYLQSSYYEHWLHAFETLLLAKGVITVDELWGGAKPTLCKPGTPVLTQDMVSMVVSTGGSARVSHDVAPRFRVGDRVRTKNFNPTTHTRLPRYARDKVGRIEIAHGVFITPDTAAHGLGEHPQHVYSVSFTAQELWGEPRPDNVFIDLWDDYLEEA
modifications: Raoultella terrigena, strain 37.1
B2: NHase Seq ID No. 14 and 16: nitrile hydratase of Brevibacterium linens strain 32B.1, α-subunit SEQ ID NO 14, β-subunit SEQ ID NO 16 (protein)
alpha: MSDKIRSQEEIAARVKALESMLIEKGIMTTQAIDRLVEIYENEVGPQLGAKVVAKAWSDPGFKSRLLTDATGACGELGIGGLQGEDMVVVEDTDTVHNVIVCTLCSCYPWPVLGLPPNWYKDPQYRAAICREPRKVLSESFGYTVSNDVEIRVWDSSSEMRYWVLPRRPDGTDGWTEDQLADLVSRDSMIGVGPTAKAQS
beta: MNGVFDLAGTDGLGPVVVPDDEPIFRAEWEKAAFGMFSMCFRGGFFGVDQFRYGMEQIDPAVYLKSPYYEHWIHTVEYHGERTGQLDLDELDRRTEYYLANPDAPMPEHADDPELLAFINAVVPAGAPAKRESDKIARFQVGDTVKVLRDSPRGHTRRARYIRGATGEIVLAHGTFIYPDTAGNNLGECPEHVYTVRFTAEELWGAETAEPNQSVYFDVWDPYIELVTPRGAQSA
modifications: Brevibacterium linens, strain 32B.1
B3: NHase Seq ID No. 10 and 12: nitrile hydratase of Pantoea sp. strain 17.3.1, α-subunit SEQ ID NO 10, β-subunit SEQ ID NO 12 (protein)
alpha: MSNHDVLPSESALKVRAIQSLLTEKGLLDPQTSDAIVDYFENKIGPRNGASVVARAWLDAEFKKKLLEDGTTAISEMGFSGAEGAVIHVLENTDAVHNIVVCTLCSCYPWPVLGLPPIWFKSAQYRSRVVIDPRGVLKEFGTELPPEKEIRVWDSNAEIRYFVLPQRPAGTENLSEEQLAARVTRDSMIGTGIL
beta: MNGIHDCGGMQNLGAIPLEENEPVFHAEWEKAILVMTINGFLSGSILVDNFRHQIEKMPASEYLLTSYYEHWVFAMEHLLINNNTITREALESRMAELAERVEMSAIAKETFLELIKTTPNYHRESDAIARFAPGDTIRTCELNTPGHTRLPRYARDKTGVIIAMYGVCVFPDSLTRDGSEDPQHVYLVQFSSADLWGAGSEPFTVSLSLFESYIAEKVE
modifications: Pantoea sp., strain 17.3.1

How the values were obtained:
Assay type in all cases: biochemical
[1] = tested on: NHase from Raoultella terrigena, 77.1; assay: Substrate spectrum, relative activity of the NHase from strain 77.1; conditions: cell free crude cell extracts; 2-phenylpropionitrile set to 100%
Experimental: (§1) If not otherwise indicated enzyme samples were prepared as follows: the cells from 1 ml of the culture were washed with 50 mM Tris/HCl pH 7.5 and resuspended in 750 μl of the same buffer. This suspension was incubated at 30° C. in a thermomixer at 1000 rpm. The biotransformation was started by addition of the substrate 2-phenylpropionitrile (PPN) in 50 mM Tris/HCl pH 7.5. The concentration of the substrate was 1 mM, if not otherwise stated. The reaction was stopped after 1 min, 5 min or 10 min as indicated by addition of 1 M HCl. Cells were removed by centrifugation and the supernatant analysed by HPLC for the presence of the corresponding amide. The HPLC analysis was carried out on a system comprising a Surveyor 4 channel Pump, AutoSampler and UVNIS detector at 210 nm from Thermo Finnigan on a Grom-Sil 1200DS-3 cp 3 μm (125×4.6 mm) reverse phase column. As mobile phase, acetonitrile and 0.3% H3PO4 were used in a ratio of 50:50 at a flow of 0.7 ml/min, respectively.
(§2) For the enzyme according Seq ID No. 2 and 4 (Raoultella terrigena, 77.1) and Seq ID. No. 18 and 20 (Klebsiella oxytoca, 38.1.2) the substrate spectrum was determined. The activities were compared to the activity towards 2-phenylpropionitrile which was set to 100%. Both enzymes are capable of the conversion of aliphatic as well as aromatic substrates.

[2] = tested on: NHase from Klebsiella oxytoca, 38.1.2; assay: Substrate spectrum, relative activity of the NHase from strain 38.1.2; conditions: lyophilized cells; 2-phenylpropionitrile set to 100%
Experimental: as §1, §2

[3] = Enantioselectivity of NHases towards rac-2-phenylpropionitrile (washed cells, chiral HPLC); conditions: for E-value: kinetic resolution of rac-2-phenylpropionitrile; for enantiopreference: rac-2-phenylpropionitrile
Experimental: (§3) For the determination of enantioselectivity towards rac-mandelonitrile and 2-phenylpropionitrile 40-50 mg of washed cells were resuspended in 1 ml of 50 mM Tris/HCl pH 7.5. 100 μl of cell suspension were mixed with 800 μl 50 mM Tris/HCl pH 7.5 and incubated at 30° C. in a thermomixer at 1000 rpm. The biotransformation was started by addition of 100 μl of 10 mM rac-mandelonitrile or rac-2-phenylpropionitrile in 50 mM Tris/HCl pH 7.5. The reaction was stopped by addition of 100 μl 1M HCl after 1, 5 or 10 min. Cells were removed by centrifugation and the supernatant analysed by chiral HPLC for the presence of mandeloamide and phenylpropionamide, respectively. rac-Mandeloamide was analysed on a HPLC comprising a Surveyor 4 channel Pump, AutoSampler and UVNIS detector at 210 nm from Thermo Finnigan on a Nucleodex β-OH column (Macherey & Nagel) using 50% methanol/water:water (40:60) as mobile phase at a flow rate of 0.7 ml/min. The apparent enantiomeric ratio (Eapp) of the conversion of mandelonitrile was calculated according to Straathof and Jongejan for asymmetric catalysis (see example 9). In case of 2-phenylpropionamide, the samples were lyophilized and resuspended in n-hexane: 2-propanol (80:20). Prior to injection, the samples were additionally dried with sodium sulfate and were centrifugated at 16,000 g for 5 min. The supernatants were analyzed using a Chiracel OD column (Daicel) on a Spectra System (AS3000, P2000, UV2000 at 210 nm) from Thermo Separation Products with n-hexane: 2-propanol (80:20) as mobile phase at a flow rate of 0.5 ml/min. The enantiomeric ratio (E) of the conversion of PPN was calculated according to Chen et al.

[4] = Activity of enzyme samples after heterologous expression of NHases in E. coli towards PPN; conditions: 1 mM PPN; stopped after 1 min; host E. coli BL21 (DE3) (a) or E. coli Rosetta (DE3) (b)
Experimental: The amplified α-subunits were ligated to pET22b whereas the β-subunits were ligated to pET26b by use of the unique NdeI and XhoI restriction enzyme recognition sites. E. coli BL21 (DE3) or E. coli Rosetta (DE3) was cotransformed with the vectors carrying the genes for the corresponding α- and β-subunits of the NHases. Freshly transformed cells were grown over night at 37° C. in 5 ml LB-medium containing 100 μg/ml ampicillin, 25 μg/ml kanamycin and 2% (w/v) glucose. In case of E. coli Rosetta (DE3) 12.5 μg/ml chloramphenicol was additionally used. 1 ml of this culture was used to inoculate 100 ml of LB-medium containing 100 μg/ml ampicillin, 25 μg/ml kanamycin and 1% (w/v) glucose. Cells were incubated at 20° C. or 30° C. on a gyratory shaker at 100 rpm. At an optical density O.D.595=1 cells were induced by addition of 100 μg/ml IPTG. Simultaneously, CoCl2*6H2O was added in a concentration of 250 μM. When the P16K activator protein from the strain Brevibacterium linens was coexpressed with the corresponding NHase E. coli Rosetta (DE3) pET22—32B1α pET26—32B.1β pBBR5—32B_P16K was grown in LB-medium containing 100 μg/ml ampicillin, 25 μg/ml kanamycin, 12.5 μg/ml chloramphenicol and 10 μg/ml gentamycin and 1% (w/v) glucose. Samples were taken 24 h after induction.
as §1

[5] = Enantioselectivity of NHases towards rac-mandelonitrile (washed cells, chiral HPLC); conditions: for enantiopreference: (R/S)-mandelonitrile; for Eapp-value: kinetic resolution of (R/S)-mandelonitrile; for Eapp-value heterologously expressed / Eapp-value homologously expressed: rac-mandelonitrile; for Eapp-value heterologously expressed: heterologously expressed NHase; for Eapp-value homologously expressed: homologously expressed NHase
Experimental: as §3, with “al. […]” for “al.”

Molecule	rel. activity 77.1 [1] [%]	rel. activity 38.1.2 [2] [%]	E-value [3]	enantiopreference [3]	spec. activity [4] [μkat/g cdw]	vol. activity [4] [μkat/L cultur]	enantiopreference [5]	Eapp-value [5]	Eapp-value heterologously expressed [5]	Eapp-value homologously expressed [5]
CCC(C#N)c1ccccc1 (stereo not drawn) [2-phenyl-butyronitrile]	1	18	–	–	–	–	–	–	–	–
CC(C#N)c1ccccc1 (stereo not drawn) [2-phenyl-propionitrile]	100	100	–	–	–	–	–	–	–	–
methacrylonitrile	109	138	–	–	–	–	–	–	–	–
N#CC(O)c1ccccc1 (stereo not drawn) [mandelonitrile]	5	9	–	–	–	–	–	–	–	–
N#Cc1cccnc1 [3-cyanopyridine]	21	–	–	–	–	–	–	–	–	–
butyronitrile	242	281	–	–	–	–	–	–	–	–
N#Cc1ccccc1 [benzonitrile]	18	25	–	–	–	–	–	–	–	–
N#CCc1ccccc1 [phenyl-acetonitrile]	1	1	–	–	–	–	–	–	–	–
B1	–	–	47	(S)	2.8	5.5	(S)	18	18	17
B2	–	–	8	(S)	16.9	25.3	(S)	4	4	4
B3	–	–	2	(S)	0.4	0.6	(S)	4	4	5
